Results as given in US20220242943A1.

Experiments:
human PDGF-AB (human) [1] = target: human PDGF-AB (human) (UniProt P04085); test: cell-based or functional assay
human PDGF-BB (human) [2] = target: human PDGF-BB (human) (UniProt P01127); test: cell-based or functional assay
[3] = target: Cynomolgus monkey PDGF-BB (cynomolgus monkey (Macaca fascicularis)); test: SPR 25C, mAb captured on anti-hFc; analyte Monkey PDGF-BB homodimer (Kingfisher)
human PDGF-BB (human) [4] = target: human PDGF-BB (human) (UniProt P01127); test: SPR 25C, mAb captured on anti-hFc; analyte Human PDGF-BB homodimer (R&D)
human PDGF-AB (human) [5] = target: human PDGF-AB (human) (UniProt P04085); test: blocking ELISA: 100 pM Biot-PDGF-AB on 1 ug/ml hPDGFRb-mmH; IC50 cell NB (Non-Blocker)
human PDGF-BB (human) [6] = target: human PDGF-BB (human) (UniProt P01127); test: blocking ELISA: 60 pM Biot-PDGF-BB on 1 ug/ml hPDGFRb-mmH; IC50 cell NB (Non-Blocker)
[7] = target: human PDGFRβ on HEK293/SRE-luc/hPDGFRβ cells (human) (UniProt P09619); test: cell-based or functional assay
Sequence of human PDGFRβ on HEK293/SRE-luc/hPDGFRβ cells (human) (P09619 33-1106): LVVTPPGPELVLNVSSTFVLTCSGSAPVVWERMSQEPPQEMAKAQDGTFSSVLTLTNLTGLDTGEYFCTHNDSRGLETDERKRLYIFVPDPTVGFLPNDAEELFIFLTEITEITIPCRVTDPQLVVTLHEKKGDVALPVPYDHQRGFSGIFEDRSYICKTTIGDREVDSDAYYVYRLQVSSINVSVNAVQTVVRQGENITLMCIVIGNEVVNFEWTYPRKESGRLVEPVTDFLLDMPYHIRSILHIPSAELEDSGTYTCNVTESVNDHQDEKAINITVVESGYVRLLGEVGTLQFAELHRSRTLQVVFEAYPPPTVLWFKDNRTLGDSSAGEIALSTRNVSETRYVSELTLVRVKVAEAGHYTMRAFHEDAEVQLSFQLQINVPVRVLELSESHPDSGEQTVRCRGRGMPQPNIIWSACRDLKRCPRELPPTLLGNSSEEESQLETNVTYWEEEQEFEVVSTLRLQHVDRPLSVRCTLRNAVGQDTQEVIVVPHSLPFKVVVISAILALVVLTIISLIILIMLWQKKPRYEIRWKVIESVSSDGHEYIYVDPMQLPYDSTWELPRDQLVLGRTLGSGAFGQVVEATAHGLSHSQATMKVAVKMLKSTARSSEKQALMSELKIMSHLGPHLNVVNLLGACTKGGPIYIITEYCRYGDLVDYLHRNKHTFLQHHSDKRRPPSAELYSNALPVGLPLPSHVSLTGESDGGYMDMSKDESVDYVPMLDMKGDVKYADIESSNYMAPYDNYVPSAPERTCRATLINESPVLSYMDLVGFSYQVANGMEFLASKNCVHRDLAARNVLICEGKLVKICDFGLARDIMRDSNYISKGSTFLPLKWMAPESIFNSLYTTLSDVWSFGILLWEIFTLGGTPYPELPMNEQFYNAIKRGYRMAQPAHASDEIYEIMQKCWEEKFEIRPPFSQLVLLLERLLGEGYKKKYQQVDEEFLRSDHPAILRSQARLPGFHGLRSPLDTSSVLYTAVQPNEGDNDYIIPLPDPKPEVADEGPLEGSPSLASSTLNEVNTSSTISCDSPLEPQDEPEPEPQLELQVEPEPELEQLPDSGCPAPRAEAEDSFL

Sequence of Cynomolgus monkey PDGF-BB (cynomolgus monkey (Macaca fascicularis)) (chain, as listed by the source): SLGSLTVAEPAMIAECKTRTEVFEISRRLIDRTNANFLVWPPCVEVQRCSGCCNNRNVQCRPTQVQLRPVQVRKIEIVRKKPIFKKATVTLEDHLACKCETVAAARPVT

A647 Intensity, internalization in NHLF, pre-blocking Ab: NA (human PDGF-AB (human) [1])	A647 Intensity, internalization in PASMC, pre-blocking Ab: NA (human PDGF-AB (human) [1])	Fold Change vs REGN1945, internalization in NHLF, pre-blocking Ab: NA (human PDGF-AB (human) [1]) [fold]	Fold Change vs REGN1945, internalization in PASMC, pre-blocking Ab: NA (human PDGF-AB (human) [1]) [fold]	A647 Intensity, internalization in NHLF, pre-blocking Ab: NA (human PDGF-BB (human) [2])	A647 Intensity, internalization in PASMC, pre-blocking Ab: NA (human PDGF-BB (human) [2])	EC50 of subsequent PDGF-BB calcium flux in PASMC after 3 hr pre-treatment with antibody-PDGFBB (10:1 nM) (human PDGF-BB (human) [2]) [nM]	Fold Change vs REGN1945, internalization in NHLF, pre-blocking Ab: NA (human PDGF-BB (human) [2]) [fold]	Fold Change vs REGN1945, internalization in PASMC, pre-blocking Ab: NA (human PDGF-BB (human) [2]) [fold]	Max-Min at 5 nM PDGF-BB (RFU), PASMC after 3 hr pre-treatment with antibody-PDGFBB (human PDGF-BB (human) [2]) [RFU]	Max-Min at 5 nM PDGF-BB (RFU), PASMC after 24 hr pre-treatment with antibody-PDGFBB (human PDGF-BB (human) [2]) [RFU]	Max-Min at 5 nM PDGF-BB (RFU), PASMC after 48 h pre-treatment with antibody-PDGFBB (human PDGF-BB (human) [2]) [RFU]	30nM mfPDGF-BB (KingFisher) Bound (RU) [3] [RU]	30nM hPDGF-BB (R&D) Bound (RU) (human PDGF-BB (human) [4])	% blocking at 100 nM Ab (human PDGF-AB (human) [5]) [%]	% blocking at 100 nM Ab (human PDGF-BB (human) [6]) [%]	EC50 of ligand, SRE-luciferase in HEK293/SRE-luc/hPDGFRβ cells [7] [nM]	Substance
624000	464000	1	1	573000	483000	0.6	1	1	3950	1460	492	6.8	6.7	21	-6	–	REGN1945 (antibody)
–	–	–	–	–	–	–	–	–	–	–	–	–	–	–	–	8.6	human PDGF-AB (from UniProt P04085 87-211) (ligand)
–	–	–	–	–	–	–	–	–	–	–	–	–	–	18	-5	–	isotype - mIgG (REGN 751) (antibody)
